# From US20250147051A1, “METHOD FOR DETECTING A TAU PROTEIN IN A SALIVA SAMPLE” (GTINVENT LIMITED, priority 2022, published 2025)
# Changes are numbered by the printed parent chain.
# B1: S1E12: anti-tau clone, SEQ ID NO: 218 (protein)
# scFv: QVQLQESGPSLVKPSQTLSLTCTVSGFSLGSNSVGWVRQAPGKAPEWVAGIDTDGEEGYNPALNSRLSITRDTSKSQVSLSLSSVTSEDTAVYYCGRSYRADGLAYGYVQAIDYWGPGLLVTVSSEGKSSGASGESKVDDRVVRTQPSSVSGSLGQRVSITCSGSFIGISSVGWFQQLPGSGLRTIIVASDGRPSGVPDRFSMSKSGNTATLTISSLQAEDEADYFCGSSDRTQYTGVFGSGTRLTVLG
# modifications: S1E12 amino acid sequence
# B2: CA9: anti-tau clone, SEQ ID NO: 371 (protein)
# scFv: B1 scFv with G30T, A101S, R141Q, V142A, R144L, S148A
# modifications: CA9 amino acid sequence
# B3: NS2A1: anti-tau clone, SEQ ID NO: 220 (protein)
# scFv: QVQLQESGPSLVKPSQTLSLTCTVSGFSLSTNSVGWVRQAPGKAPEWVAGIDTDGEEGFNPVLKSRLSITRDTSKSQVSLSLSNVTSEDTAVYYCGRSYRTDGLAYGYVQAIDYWGPGLLVTISSEGKSSGASGESKVDDQSVLTQPSSVSGSPGQTVSITCSGSYIGSSGVGWFQQLPGSGLRTIIVASDGRPSGVPDGFSMSKSGNTATLTISSLQAEDEADYFCGSSDRTQYTGLFGSGTRLTVLG
# modifications: NS2A1 amino acid sequence
# B4: CC7: anti-tau clone, SEQ ID NO: 365 (protein)
# scFv: QVQLQESGPSLVKPSQTLSLTCTVSGFSLTSNAVIWVRQAPGKAPEWVALIDVDGDAAYDPALKSRLSITRDTSKSQVSLSLRSVTTEDTAVYYCARDYGSWGYVSDIDYWGPGLLVTVSSEGKSSGASGESKVDDRVVRTQPSSVSGSLGQRVSITCSGSYITGSSVGWFQQVPGSGLKTVIYDNNDRPSGVPDRFSGSKSGDTATLTISSLQAEDEADYYCASYDTSNIGLFGSGTRLTVLG
# modifications: CC7 amino acid sequence
# B5: S1D12 mAb: S1D12 reformatted as mAb; heavy chain SEQ ID NO: 445, light chain SEQ ID NO: 446 (antibody)
# heavy: QVQLQESGPSLVKPSQTLSLTCTVSGFSLNNNAVGWVRQAPGKVPESLVGCSSDGTCYYNSALKSRLDITRDTSKNQISLSLSSVTTDDAAVYYCTRGHYSIYGYDYLGTIDYWGPGLLVTVSSAKTTAPSVYPLAPVCGDTTGSSVTLGCLVKGYFPEPVTLTWNSGSLSSGVHTFPAVLQSDLYTLSSSVTVTSSTWPSQSITCNVAHPASSTKVDKKIEPRGPTIKPCPPCKCPAPNLLGGPSVFIFPPKIKDVLMISLSPIVTCVVVDVSEDDPDVQISWFVNNVEVHTAQTQTHREDYNSTLRVVSALPIQHQDWMSGKEFKCKVNNKDLPAPIERTISKPKGSVRAPQVYVLPPPEEEMTKKQVTLTCMVTDFMPEDIYVEWTNNGKTELNYKNTEPVLDSDGSYFMYSKLRVEKKNWVERNSYSCSVVHEGLHNHHTTKSFSRTPGK
# light: QAVLTQPSSVSGSLGQRVSITCSGSSSNVGGGNSVGWYQHLPGSGLKTIIYDTNSRPSGVPDRFSGSRSGNTATLTINSLQAEDEGDYYCVTGDSTTHDDLVGSGTRLTVLGGQPKSSPSVTLFPPSSEELETNKATLVCTITDFYPGVVTVDWKVDGTPVTQGMETTQPSKQSNNKYMASSYLTLTARAWERHSSYSCQVTHEGHTVEKSLSRADCS
# modifications: S1D12 mAB Heavy Chain; S1D12 mAB Light Chain
# B6: CA12: anti-tau clone, SEQ ID NO: 372 (protein)
# scFv: QVQLQGSGPSLVKPSQTLSLTCTVSGFSFDSYYVGWVRQAPGKALEWLGNIYSTGRAFYNPALKSRLSITRDTSKSQVSLSVSSVTIEDTALYYCVRGSYYHGGGNGMVDFFDYWSPGLLVTVSSEGKSSGASGESKVDDQVVRTQPSSVSGSLGQRVSITCSGSSSNVGYGNYVGWFQQVPGSAPKLLIYAATSRASGVPDRFSGSRSGNTATLTIDSLQAEDEADYYCSSYQRGNTGVFGSGTRLTVLG
# modifications: CA12 amino acid sequence
# B7: S1D12: anti-tau binding molecule defined by its CDRs; scAb sequence SEQ ID NO: 32 (protein)
# scFv: QVQLQESGPSLVKPSQTLSLTCTVSGFSLNNNAVGWVRQAPGKVPESLVGCSSDGTCYYNSALKSRLDITRDTSKNQISLSLSSVTTDDAAVYYCTRGHYSIYGYDYLGTIDYWGPGLLVTVSSEGKSSGASGESKVDDQAVLTQPSSVSGSLGQRVSITCSGSSSNVGGGNSVGWYQHLPGSGLKTIIYDTNSRPSGVPDRFSGSRSGNTATLTINSLQAEDEGDYYCVTGDSTTHDDLVGSGTRLTVLG
# modifications: S1D12 amino acid sequence
# How the values were obtained:
# dGA = dGA (Homo sapiens, UniProt P10636); assay: Biacore X100 SPR binding kinetics of anti-tau scAbs (scAb captured via HuCk), analyte dGA; conditions: lead scAbs; for ka: Table 24; for dissociation rate constant (kd): Table 24, dissociation rate
# dGA, sequence (P10636 614-707): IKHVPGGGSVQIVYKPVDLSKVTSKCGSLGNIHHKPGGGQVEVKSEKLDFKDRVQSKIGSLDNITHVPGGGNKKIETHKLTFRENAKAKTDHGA
# Description: Surface plasmon resonance (SPR) is widely regarded as the gold standard for real time measurement of protein-protein interactions such as antibody binding. All SPR experiments were carried out using a Biacore X100 machine and HBS EP+ running buffer (GE Healthcare). A ‘capture’ method was followed for affinity measurements, where an anti-human constant kappa chain (HuCk) antibody was conjugated to the surface of a CM5 sensor chip using an amine coupling kit and scAb molecules were immobilised via their HuCk domain. Amine coupling is a very common approach for immobilising the ligand to the chip surface. The chip surface has a dextran matrix derivatised with carboxyl groups, which after activation with N-hydroxysuccinimide (NHS) and 1-ethyl-3-(3-dimethylaminopropyl) carbodiimide (EDC), form reactive succinimide esters which allows the covalent capturing of the ligand via any available primary amine groups (e.g. Lysine) on the ligand (in this case anti-HuCk antibody). The capture antibody was diluted 1/100 in 10 mM Sodium acetate buffer pH 5.0 and passed over the activated chip surface for a period of at least 420 s. Final ligand immobilisation levels over 12,000 RU were deemed to be satisfactory.
# Following immobilisation, the level of each scAb to be captured was identified using the standard SPR equation with a theoretical RMax of 100 RU. Analyte MW refers to the molecular weight of hT40 or dGA/dGAE molecules, while ligand MW refers to the molecular weight of the scAbs tested. RLis the desired capture level and S refers to the stoichiometric ratio:
# The scAb to be tested was added only to flow cell 2 so that flow cell 1 could act as a control to subtract any interaction with the analyte and the chip surface. Both single and multi-cycle runs were utilised using wizards developed in the Biacore X100 control software which are both accepted methods of kinetic analysis (Karlsson, R., et al. Analyzing a kinetic titration series using affinity biosensors (2006) Analytical Biochemistry 349:136-47). The multi-cycle protocol was as follows-Three start-up cycles composed of an initial capture, to the desired level, of the scAb to be tested was performed followed by a 30 s injection of glycine buffer pH 2.0 after each cycle to regenerate the chip surface. The regeneration step removed any captured scAb whilst leaving the capture antibody intact and able to repeat the capture for the next cycle. Following three start-up cycles increasing concentrations (0.15625 nM-100 nM) of the target to be tested were added to the chip surface after the desired scAb capture. The target was added for a 120 s association period and 420 s dissociation period followed by another regeneration, 30 s injection of glycine buffer pH 2.0 in between each cycle.
# The single cycle kinetics protocol was similar and utilised the same level of scAb capture. Three start-up cycles were used followed by 5 increasing concentrations of the analyte (6.25 nM-100 nM) for an association period of 120 s followed by a dissociation period of 420 s for each concentration. In single cycle kinetics the regeneration step was performed only after the final analyte concentration was added. Binding responses were analysed in Biacore X100 evaluation software and data fitted to a 1:1 binding model to obtain kinetic and affinity characterisation.
# dGAE aggregates = biological target: T1, dGAE aggregates (Homo sapiens, UniProt P10636); assay: Sandwich ELISA LoD for SDS Triton X-100 treated dGAE aggregates; assay type: binding; conditions: label = detection scAb
# T1 construct: host or cells: aggregated in house: 100 μM dGAE with DTT, 700 rpm, 37 °C, 24 h
# T1 sequence (P10636 614-708): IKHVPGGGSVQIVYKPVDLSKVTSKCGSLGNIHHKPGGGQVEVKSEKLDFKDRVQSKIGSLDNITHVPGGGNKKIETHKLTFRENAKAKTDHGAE
# Description: For aggregation, 1000 μL 100 μM dGAE+10 μL 10 mM DTT was added to a ‘LoBind’ microfuge tubes and agitated at 700 RPM/37° C. for 24 hours. Resulting sample centrifuged at 17,000×g/4° C. for 60 min and supernatant discarded to remove left over monomer. Pellet resuspended in half the original volume for future experiments and hereafter referred to as ‘aggregates’. 1 μl of aggregates was added to 1 ml of PBS and SDS was added to a final concentration of 1% (w/v). This was left to incubate on lab bench for 1 h with gentle agitation every 15 minutes. In order to neutralise the SDS effect on ELISA, Triton X-100 added to a final concentration of 3% (v/v) and mixed gently by pipetting to prevent any bubble formation. 200 μl added of this mix was to the first well of an ELISA plate coated with 1 μg/ml S1D12 mAb and blocked with 2% MPBS. Similarly aggregates treated with only SDS or Triton X-100, untreated aggregates, dGAE monomers treated with only SDS or SDS+Titon X-100 were also added to designated wells as controls. All samples were then double diluted across the plate in final volumes of 100 μl. The final column was left with no protein to act as a blank. This was allowed to stand at room temperature for 1 hour followed by the addition of detection scAb-S1G2 at 10 μg/ml. Anti-HuCk HRP labelled secondary antibody was added as described previously and ELISA data generated was represented using the graph below. In addition, limits of detection (LoD) of various core binding antibody pairing for SDS Triton X-100 treated dGAE aggregates were calculated using the above describe ELISA method and substituting capture mAbs and detection scAbs as shown in Table 30.
# tau = assay: Western blot of mouse brain homogenates (WT, L66+/+, L1+/+); conditions: 20 μg brain homogenate protein, 5-month-old WT, L1+/+ mice
# Description: Protein equivalent to 20 μg from each brain extract was separated using 4-20% bis-tris gels and run in 1×MES buffer. […] A clear band is visible in the lanes containing L66^+/+ samples, but no other bands are detectable (WT or L1^+/+). […] Once again, a band having relative mobility of 65 kDa is visible in the L66 sample with no other reactive bands present.
# This band most likely corresponds to endogenous mouse tau which is of a similar size. In the L66^+/+ samples, a second band running at approximately 68 kDa is also detected. The presence of numerous other bands indicates proteolytic truncation of tau within brain homogenates.
# core region tau = assay: S1D12 immunotherapy 6-week repeat-dose mouse study, plasma tau by CA4-S1G2 core-core Simoa assay; assay type: in vivo
# Description: A total of 12 wildtype, 12 Line 1 and 12 Line 66 female mice were used in this study—Line 1 and Line 66 are transgenic mouse models of tauopathy (Melis et al., 2015). Animals were 2 months old at the beginning of the study. Mice of each genotype were injected intraperitoneally (i.p.) with either vehicle or S1D12 mAb (30 mg/kg), once per week, for six consecutive weeks.
# Seven days post final dose, cardiac puncture blood sampling was performed. mice were anaesthetised using an overdose of sodium pentobarbital (i.p.) and blood was collected via cardiac puncture through a Plastipak syringe pre-rinsed with heparinised saline (10 U/mL) and transferred into a plastic vial containing lithium heparin anticoagulant. Blood samples were centrifuged to obtain plasma at 2,000×g for 5 min at 6° C.
# In order to monitor the ‘treatment effect’ of S1D12 mAb, plasma tau of vehicle control and antibody treated L66^+/+ mice were assessed via a core-core homebrew Simoa® assay to investigate changes in core tau pools in these mice.
# [1] = 30 mg/kg i.p. once per week for six weeks, CA4-S1G2 Simoa
molecule,measurement,setting,value
B1,ka,dGA,2.99e+06 M⁻¹ s⁻¹
same,dissociation rate constant (kd),dGA,0.001627 s⁻¹
B2,"LoD, S1D12 mAb capture, +SDS Triton dGAE agg.",dGAE aggregates,4 ng/mL
same,"LoD, direct immobilisation of dGAE aggregates, +SDS Triton dGAE agg.",dGAE aggregates,40 ng/mL
B3,ka,dGA,188000 M⁻¹ s⁻¹
same,dissociation rate constant (kd),dGA,0.00102 s⁻¹
B4,Western blot reactivity,tau,specificity for human tau
B5,"plasma tau, wildtype mice with treatment",core region tau; [1],3.57 (0.22) ng/ml
same,"plasma tau, L1 mice with S1D12 treatment","core region tau; 30 mg/kg i.p. once per week for six weeks, CA4-S1G2 Simoa, above upper limit of detection",> 100 ng/mL
B6,"LoD, S1D12 mAb capture, +SDS Triton dGAE agg.",dGAE aggregates,2 ng/mL
same,"LoD, direct immobilisation of dGAE aggregates, +SDS Triton dGAE agg.",dGAE aggregates,16 ng/mL
B7,"plasma tau, L66+/+ mice with S1D12 treatment",core region tau; [1],3.52 (0.20) ng/ml
same,"increase of core region tau in plasma vs vehicle group, L1","core region tau; CA4-S1G2 pairing, n=5 or 6",more than 100 fold
same,"increase of core region tau in plasma vs vehicle group, L66","core region tau; CA4-S1G2 pairing, n=5 or 6",more than a threefold increase
same,"increase of core region tau in plasma vs vehicle group, wild-type","core region tau; CA4-S1G2 pairing, n=5 or 6",less than a two-fold increase
same,Western blot reactivity,tau,"A band is detected in each sample (WT, L66^+/+ and L1^+/+)"
same,ka,dGA,1.21e+06 M⁻¹ s⁻¹
same,dissociation rate constant (kd),dGA,0.000418 s⁻¹
